Biological target: C4BPα1-2, a fragment of human C4b-binding protein (C4BP) (human)
Assay: ITC

| Substance | Kd [µM] |
| --- | --- |
| Intact M2 protein (mature form), Streptococcus pyogenes strain AP2 (natural protein) | 4 |
| M2G (M2_(53)G), M2 aa 53-86 fused at its C-terminus to a GCN4 coiled-coil sequence | 4 |

Source: paper doi:10.1101/2021.12.07.471543
